Assay results: article PMC3099244

Target: TAP-tagged wild-type Dyn1-GFP (cytoplasmic dynein heavy chain) (S. cerevisiae) (UniProt P36022)
Experiment: single-molecule stepwise photobleaching

stoichiometry N: 2
Substance: TAP-tagged wild-type Dyn1-GFP (cytoplasmic dynein heavy chain), P36022 1-4092
